Source: US20070196376A1 (AstraZeneca / MedImmune, published 2007)

B1: mAb 7.34.1 (antibody, V domains shown)
VH: QVQLQESGPGLVKPSETLSLTCTVSGGSISSYYWSWIRQPPGRGLEWIGYFFYSGYTNYNPSLKSRVTMSVDTSKNQFSLKLSSVTAADTAVYYCACITGTTKGGMDVWGQGATVTVSS
VL: QSVLTQAPSVSGAPGQRVTISCTGRSSNIGAGYDVHWYQQFPGTAPKLLIYGNSNRPSGVPDRFSGSKSGTSASLAITGLQAEDEADYYCQSYDSSLSGSVFGGGTKLTVLG
notes: Fully human XenoMouse hybridoma mAb, lambda light chain (V1-13/JL2); also called ATCC PTA-7423
B2: mAb 7.234.2 (antibody, V domains shown)
VH: QLQLQESGPGLVKPSETLSLTCTVSGGSINSSSNYWGWIRQPPGKGLAWIGGIYYSGSTYYNPSLRSRVTMSVDTSKNQFSLKLSSVTAADTAVYYCARQRGHSSGWWYFDLWGRGTLVTVSS
VL: DIQMTQSPSSVSASVGDRVTITCRASRGISSWLAWYQQRPGKAPKLLIYTASSLQSGVPSRFSGSGSGTDFTLTISSLQPEDFATYYCQQANSFPFTFGPGTKVDIKR
notes: Kappa light chain (L5/JK3); also called 7.234.1; 7_234_1

Key:
[1] = biological target: T1, human insulin-like growth factor-II (IGF-II) (human, UniProt P01344 25-91); assay: Biacore high-resolution, mAb captured, IGF-II injected over a range of concentrations
T1 construct: also called IGF2; IGF-2

[2] = biological target: T1, human insulin-like growth factor-II …; assay: Biacore high-resolution, mAb captured, IGF-II injected over a range of concentrations; second value, row without label
[3] = biological target: T2, human insulin-like growth factor-I (IGF-I) (human, UniProt P05019 49-118); assay: Biacore high-resolution, mAb captured, IGF-I injected over a range of concentrations
T2 construct: also called IGF1; IGF-1

[4] = biological target: T2, human insulin-like growth factor-I …; assay: cell-based or functional assay
[5] = biological target: T1, human insulin-like growth factor-II …; assay: cell-based or functional assay
[6] = biological target: T1, human insulin-like growth factor-II …; assay: Biacore low-resolution screen, mAb captured, IGF-II injected
[7] = biological target: T2, human insulin-like growth factor-I …; assay: cell-based or functional assay; remark: listed apart in the source
[8] = biological target: T1, human insulin-like growth factor-II …; assay: cell-based or functional assay; remark: listed apart in the source
[9] = biological target: T2, human insulin-like growth factor-I …; assay: Biacore low-resolution analysis, IGF-I
Protocol: (§1) The label-free surface plasmon resonance (SPR), or Biacore, was utilized to measure the antibody affinity to the antigen. For this purpose, a high-density goat anti-human antibody surface over a CM5 Biacore chip was prepared using routine amine coupling. All the mAbs were diluted to approximately 20 μg/ml in HBS-P running buffer containing 100 gg/ml BSA. Each mAb was captured on a separate surface using a 30-second contact time at 10 μL/min., and a 5-minute wash for stabilization of the mAb baseline.
(§2) The samples were prepared in the HBS-P running buffer described above. […] Drift-corrected binding data for the 34 mAbs was prepared by subtracting the signal from a control flow cell and subtracting the baseline drift of a buffer injected just prior to each antigen injection. […] A mass transport coefficient was used in fitting the data.

[10] = biological target: T2, human insulin-like growth factor-I …; assay: cell-based or functional assay; remark: listed apart in the source
[11] = biological target: T1, human insulin-like growth factor-II …; assay: cell-based or functional assay; remark: listed apart in the source
[12] = biological target: T2, human insulin-like growth factor-I …; assay: Biacore low-resolution screen, mAb captured, IGF-I injected
Protocol: as §1, §2

[13] = biological target: T2, human insulin-like growth factor-I …; assay: Biacore high-resolution, mAb captured, IGF-I injected over a range of concentrations; second value, row without label
[14] = biological target: mouse IGF-I (mouse, UniProt P05017 49-118); assay: cell-based or functional assay
[15] = biological target: mouse IGF-II (mouse, UniProt P09535 25-91); assay: cell-based or functional assay
[16] = biological target: T1, human insulin-like growth factor-II …; assay: cell-based or functional assay; remark: listed apart in the source
[17] = biological target: T1, human insulin-like growth factor-II …; assay: Biacore low-resolution analysis, IGF-II
Protocol: as §1, §2

Row | Binder | Kd [1] [nM] | Kd [3] [nM] | EC50 (nM), n = 1, IGF-I pTYR, BxPC3 cells [4] [nM] | EC50 (nM), n = 2, IGF-I pTYR, BxPC3 cells [4] [nM] | Max % Inhibition (333.3 nM), n = 1, IGF-I pTYR, BxPC3 cells [4] [%] | Max % Inhibition (333.3 nM), n = 2, IGF-I pTYR, BxPC3 cells [4] [%] | EC50 (nM), n = 1, IGF-II pTYR, BxPC3 cells [5] [nM] | EC50 (nM), n = 2, IGF-II pTYR, BxPC3 cells [5] [nM] | Max % Inhibition (133.3 nM), n = 2, IGF-II pTYR, BxPC3 cells [5] [%] | Max % Inhibition (333.3 nM), n = 1, IGF-II pTYR, BxPC3 cells [5] [%] | Kd [6] [nM] | koff [6] [s⁻¹] | kon [6] [M⁻¹ s⁻¹] | % MAX Activation, mean (n = 2), IGF-I pTYR of hIGF-IR in NIH3T3 cells [7] [%] | EC50 (nM), mean (n = 2), IGF-I pTYR of hIGF-IR in NIH3T3 cells [7] [nM] | % MAX Activation, mean (n = 2), IGF-II pTYR of hIGF-IR in NIH3T3 cells [8] [%] | EC50 (nM), mean (n = 2), IGF-II pTYR of hIGF-IR in NIH3T3 cells [8] [nM] | Kd [9] [nM] | % Inhibition, mean (n = 3), IGF-I Proliferation Assay, NIH3T3/hIGF-IR cells [10] [%] | EC50 (nM), mean (n = 3), IGF-I Proliferation Assay, NIH3T3/hIGF-IR cells [10] [nM] | further results
1 | B1 | 0.164 | 0.436 | 5.9 | 3.8 | 100 | 98.5 | 2 | 1.9 | 89.7 | 100 | 0.06 | 0.00018 | 3e+06 | 14.2 | 9.4 | 21.5 | 2.5 | 0.615 | 72.6 | 23.4 | Kd [2]: 0.162 nM; % Inhibition, mean (n = 2), IGF-II Proliferation Assay, NIH3T3/hIGF-IR cells [11]: 73.6%; EC50 (nM), mean (n = 2), IGF-II Proliferation Assay, NIH3T3/hIGF-IR cells [11]: 16.3 nM; Kd [12]: 0.615 nM; koff [12]: 0.0032 s⁻¹; kon [12]: 5.2e+06 M⁻¹ s⁻¹; Kd [13]: 0.421 nM; Mouse IGF-I EC50 (nM), n = 1, phosphorylation of hIGF-IR in NIH3T3 cells [14]: 6 nM; Mouse IGF-I EC50 (nM), n = 2, phosphorylation of hIGF-IR in NIH3T3 cells [14]: 10.2 nM; Mouse IGF-II EC50 (nM), n = 1, phosphorylation of hIGF-IR in NIH3T3 cells [15]: 4 nM; Mouse IGF-II EC50 (nM), n = 2, phosphorylation of hIGF-IR in NIH3T3 cells [15]: 9.7 nM; EC50 (nM), n = 1, IGF-II Proliferation, BxPC3 cells [16]: 0.5 nM; EC50 (nM), n = 2, IGF-II Proliferation, BxPC3 cells [16]: 6.7 nM; Max % Inhibition (133.3 nM), n = 2, IGF-II Proliferation, BxPC3 cells [16]: 109%; Max % Inhibition (333.3 nM), n = 1, IGF-II Proliferation, BxPC3 cells [16]: 117%; Kd [17]: 0.06 nM
2 | B2 | 0.295 | 3.76 | 5.1 | 2.9 | 97.3 | 91.5 | 1.9 | 2.3 | 77.3 | 98.5 | 0.0453 | 0.00029 | 6.4e+06 | 21.1 | 24.3 | 21.1 | 7.7 | 0.328 | 67.3 | 40.6 | % Inhibition, mean (n = 2), IGF-II Proliferation Assay, NIH3T3/hIGF-IR cells [11]: 62.1%; EC50 (nM), mean (n = 2), IGF-II Proliferation Assay, NIH3T3/hIGF-IR cells [11]: 24.3 nM; Kd [12]: 0.328 nM; koff [12]: 0.0022 s⁻¹; kon [12]: 6.7e+06 M⁻¹ s⁻¹; Mouse IGF-I EC50 (nM), n = 1, phosphorylation of hIGF-IR in NIH3T3 cells [14]: 46 nM; Mouse IGF-II EC50 (nM), n = 1, phosphorylation of hIGF-IR in NIH3T3 cells [15]: 36.1 nM; EC50 (nM), n = 2, IGF-II Proliferation, BxPC3 cells [16]: 2.6 nM; Max % Inhibition (133.3 nM), n = 2, IGF-II Proliferation, BxPC3 cells [16]: 201%; Max % Inhibition (333.3 nM), n = 1, IGF-II Proliferation, BxPC3 cells [16]: 112%; Kd [17]: 0.0453 nM
